Results taken from patent publication US20110288003A1 (INDIANA UNIVERSITY RESEARCH AND TECHNOLOGY, published 2011).
Read-outs that look alike come from different tables or passages of the source. Bridge positions count the residues as written; N and C are the ends. Ends that are not written are not given here. PLA = phenyl lactic acid

Assays:
Test in all cases: cell-based or functional assay
glucagon receptor [1] = target: T1, glucagon receptor (UniProt P47871 26-477, limits assumed)
GLP-1 receptor [2] = target: T2, GLP-1 receptor (UniProt P43220 24-463, limits assumed)
GLP-1 receptor [3] = target: T2, GLP-1 receptor; remark: listed apart in the source
glucagon receptor [4] = target: T1, glucagon receptor; remark: listed apart in the source
glucagon receptor [5] = target: T1, glucagon receptor; remark: listed apart in the source
GLP-1 receptor [6] = target: T2, GLP-1 receptor; remark: listed apart in the source
Target sequence in this assay (P43220 24-463 limits assumed): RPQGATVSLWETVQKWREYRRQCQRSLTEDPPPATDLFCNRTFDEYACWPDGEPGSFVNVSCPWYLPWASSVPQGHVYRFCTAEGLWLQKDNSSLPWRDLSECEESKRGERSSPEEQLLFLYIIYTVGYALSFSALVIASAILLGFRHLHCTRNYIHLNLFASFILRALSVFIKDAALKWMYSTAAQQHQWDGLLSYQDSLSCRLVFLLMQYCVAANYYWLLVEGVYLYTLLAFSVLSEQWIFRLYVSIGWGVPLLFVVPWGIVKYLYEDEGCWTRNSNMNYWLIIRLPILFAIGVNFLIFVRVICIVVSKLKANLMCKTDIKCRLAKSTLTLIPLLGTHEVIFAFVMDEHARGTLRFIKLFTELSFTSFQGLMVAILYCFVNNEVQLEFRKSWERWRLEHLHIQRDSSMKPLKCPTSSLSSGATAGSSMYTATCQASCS

T1 sequence (P47871 26-477 limits assumed): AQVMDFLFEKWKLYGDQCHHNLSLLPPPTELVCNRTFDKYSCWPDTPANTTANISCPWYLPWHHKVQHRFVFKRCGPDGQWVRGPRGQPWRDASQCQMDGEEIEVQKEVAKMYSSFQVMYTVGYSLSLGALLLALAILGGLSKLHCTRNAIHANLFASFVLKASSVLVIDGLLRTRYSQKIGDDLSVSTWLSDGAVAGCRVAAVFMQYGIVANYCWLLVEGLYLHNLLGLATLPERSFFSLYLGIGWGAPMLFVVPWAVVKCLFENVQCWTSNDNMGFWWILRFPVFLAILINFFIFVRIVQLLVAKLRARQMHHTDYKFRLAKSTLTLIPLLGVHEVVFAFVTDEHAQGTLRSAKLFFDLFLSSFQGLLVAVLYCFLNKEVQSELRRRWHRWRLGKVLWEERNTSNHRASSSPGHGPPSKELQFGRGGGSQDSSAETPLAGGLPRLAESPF

AEGTFTSEYSKYLDERRAKDFVQWLMDT (lactam 15-19) [[A2E3, E16K20(Lactam), D28]G(2~29)]
Glucagon IC50 (glucagon receptor [1]): 63 nM

{PLA}-TSDYSKYLDERRAKDFVEWLMDT (lactam 14-18) [[PLA6, D9, E16, K20E24(Lactam), D28]G(6-29)]
GLP-1 EC50 (GLP-1 receptor [2]): 239 nM | Glucagon IC50 (glucagon receptor [1]): 74 nM

{PLA}-TSDYSKYLDERRAKDFVQWLMDT (lactam 10-14) [[PLA6, D9, E16K20(lactam), D28]G(6-29)]
GLP-1 EC50 (GLP-1 receptor [3]): 4 nM | Glucagon IC50 (glucagon receptor [4]): 6 nM | Glucagon IC50 (glucagon receptor [1]): 10 to 30 nM

B1: [PLA6, E9, E16K20(Lactam)] glucagon(6-39) (Table 13, peptide 6) (peptide)
peptide: TSEYSKYLDERRAKDFVQWLMNTGPSSGAPPPS
modifications: PLA (phenyl lactic acid, in place of Phe6 of glucagon) at the N-terminus before the printed letters; lactam between E16 and K20 (glucagon numbering)
GLP-1 EC50 (GLP-1 receptor [3]): 20 nM

B2: [A2E3, E16K20(Lactam), D28]G(1~29) (peptide)
peptide: HAEGTFTSEYSKYLDERRAKDFVQWLMDT-NH2
modifications: lactam 16-20; N-terminus assumed
SMILES: CSCC[C@H](NC(=O)[C@H](CC(C)C)NC(=O)[C@H](Cc1c[nH]c2ccccc12)NC(=O)[C@H](CCC(N)=O)NC(=O)[C@@H](NC(=O)[C@H](Cc1ccccc1)NC(=O)[C@H](CC(=O)O)NC(=O)[C@@H]1CCCCNC(=O)CC[C@H](NC(=O)[C@H](CC(=O)O)NC(=O)[C@H](CC(C)C)NC(=O)[C@H](Cc2ccc(O)cc2)NC(=O)[C@H](CCCCN)NC(=O)[C@H](CO)NC(=O)[C@H](Cc2ccc(O)cc2)NC(=O)[C@H](CCC(=O)O)NC(=O)[C@H](CO)NC(=O)[C@@H](NC(=O)[C@H](Cc2ccccc2)NC(=O)[C@@H](NC(=O)CNC(=O)[C@H](CCC(=O)O)NC(=O)[C@H](C)NC(=O)[C@@H](N)Cc2c[nH]cn2)[C@@H](C)O)[C@@H](C)O)C(=O)N[C@@H](CCCNC(=N)N)C(=O)N[C@@H](CCCNC(=N)N)C(=O)N[C@@H](C)C(=O)N1)C(C)C)C(=O)N[C@@H](CC(=O)O)C(=O)N[C@H](C(N)=O)[C@@H](C)O
GLP-1 EC50 (GLP-1 receptor [2]): 0.2 nM | Glucagon IC50 (nM); PA = partial antagonist (glucagon receptor [1]): 130 nM

HSQGTFTSDYARYLDARRAREFIKWLVRGRG [ANK2 (Bayer peptide)]
GLP-1 EC50 (GLP-1 receptor [2]): 0.28 nM

B3: [E9, E16K20(lactam), D28]G(4~29) (peptide)
peptide: GTFTSEYSKYLDERRAKDFVQWLMDT-NH2
modifications: lactam 13-17; N-terminus assumed
SMILES: CSCC[C@H](NC(=O)[C@H](CC(C)C)NC(=O)[C@H](Cc1c[nH]c2ccccc12)NC(=O)[C@H](CCC(N)=O)NC(=O)[C@@H](NC(=O)[C@H](Cc1ccccc1)NC(=O)[C@H](CC(=O)O)NC(=O)[C@@H]1CCCCNC(=O)CC[C@H](NC(=O)[C@H](CC(=O)O)NC(=O)[C@H](CC(C)C)NC(=O)[C@H](Cc2ccc(O)cc2)NC(=O)[C@H](CCCCN)NC(=O)[C@H](CO)NC(=O)[C@H](Cc2ccc(O)cc2)NC(=O)[C@H](CCC(=O)O)NC(=O)[C@H](CO)NC(=O)[C@@H](NC(=O)[C@H](Cc2ccccc2)NC(=O)[C@@H](NC(=O)CN)[C@@H](C)O)[C@@H](C)O)C(=O)N[C@@H](CCCNC(=N)N)C(=O)N[C@@H](CCCNC(=N)N)C(=O)N[C@@H](C)C(=O)N1)C(C)C)C(=O)N[C@@H](CC(=O)O)C(=O)N[C@H](C(N)=O)[C@@H](C)O
GLP-1 EC50 (GLP-1 receptor [2]): 151 nM | Glucagon IC50 (glucagon receptor [1]): 10 to 30 nM

{PLA}-TSDYSKYLDERRAQDFVEWLMKT (lactam 18-22) [[PLA6, D9, E16, E24K28(lactam)]G(6~29)]
GLP-1 EC50 (GLP-1 receptor [2]): 289 nM | Glucagon IC50 (glucagon receptor [1]): 22 nM

{PLA}-TSDYSKYLDERRAQDFVQWLMDT (lactam 6-10) [[PLA6, D9, K12E16(Lactam), D28]G(6-29)]
GLP-1 EC50 (GLP-1 receptor [2]): 177 nM | Glucagon IC50 (glucagon receptor [1]): 63 nM

FTSEYSKYLDERRAQDFVQWLMNTGPSSGAPPPS [E9, K12, E16 glucagon(6-39) (Table 13, peptide 1)]
Glucagon IC50 (glucagon receptor [4]): 762 nM | Glu IC50 (glucagon receptor [5]): 762 nM

FTSEYSKYLDERRAKDFVQWLMNTGPSSGAPPPS (lactam 11-15) [E9, E16K20(lactam) glucagon(6-39) (Table 13, peptide 3)]
GLP-1 EC50 (GLP-1 receptor [3]): 36 nM | Glucagon IC50 (glucagon receptor [4]): 42 nM | GLP-1 EC50 (GLP-1 receptor [6]): 36 nM | Glu IC50 (glucagon receptor [5]): 42 nM

FTSEYSKYLDERRAQDFVQWLMNTGPSSGAPPPS (lactam 7-11) [E9, K12E16(lactam) glucagon(6-39) (Table 13, peptide 2)]
GLP-1 EC50 (GLP-1 receptor [3]): 63 nM | Glucagon IC50 (glucagon receptor [4]): 2010 nM | GLP-1 EC50 (GLP-1 receptor [6]): 63 nM | Glu IC50 (glucagon receptor [5]): 2010 nM

FTSDYSKYLDERRAQDFVQWLMNTGPSSGAPPPS (lactam 7-11) [D9, K12E16(Lactam) glucagon(6-39) (Table 13, peptide 4)]
GLP-1 EC50 (GLP-1 receptor [6]): 119 nM | Glu IC50 (glucagon receptor [5]): 828 nM

{PLA}-TSEYSKYLDERRAQDFVQWLMNTGPSSGAPPPS (lactam 6-10) [[PLA6, E9, K12E16(Lactam) glucagon(6-39) (Table 13, peptide 5)]
GLP-1 EC50 (GLP-1 receptor [6]): 6 nM | Glu IC50 (glucagon receptor [5]): 72 nM
